From a protein production outcome set (Wang et al. 2014)

Assay: label from the status in PepcDB records
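Also: failed if final PepcDB status was selected cloned or expressed and not failed if soluble or beyond.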

Sequence	protein production
MPSDSQNNKRIAQNTLLLYFRMLFLMLVSLYTSRVNLNALGIEDFGIYNVVGGLVAMFSIISGSLVSSISRFITFELGTENKEKLKKVFSTAVSIQFFLVIIVVILAETIGLWFLNNKMVIPEERILAANIIYQFSIISFALSLMSIPYTGTIVAHEKMSAFAYISIFDVIGKLAVALTISIAPIDKLIWFAGFIVFNSTIIQSIYIFYCKRHFEECTYHFIFDKSLLKNMFGFAGWNFIGSIAAILRDQGGNIVINMFCGPAVNAARGVAMQVNNAVSGFVSNFQTALNPQITKSYASGNYDYMMQLIFQGARLSYYILLILALPIISNTHFILQLWLGQVPKHTVLFVQLVLFFTMSESLANPLINAMLATGKIKKFQIIVGGLNLVNLPLSYICLRLGCIPESVVIIAIIISMICEMARVIMLRNMIHFPARSFLKKVYFNVIFVTITASILPLYLHFILEENIYTFTLISVVSFSCTLLSILYIGCSSEERVMVFSKVKVIVNKVSKRYK	failed
MKKNLLYLSCALMCMLGFLSSCKDDEKEIPPVVEDVVAQYTGDKVKVTLGGEAVSGDAQIDLVQQDDKSLTIKLLNIIPDVKEFSIPNAEFEATTRSAYISKLSGKVSNAVVGYDVTFEGVVDEGVLTASITATEIKGDSINAKKAGLTGKTFKGKMTINVSNIPTPIEMEQRVYTSVVSKDTSAIKLKINDFAFQGLKLGDISLDTVAVRHRGEQDGKPIYGFKTKSQEMTLEAVGKVLIDANGTIIGEKMELSLNVNAVTAGLTVGVDFSGNIVEESTDTKATITVTGDAVAEGVTVSGNTYTFKVWESTPDDQLVFIPKIEIPATAVLDSIIIYDNRNKKVSAVEPNTAIDFSQLKENYYVGYHVTPEDIRYPSKKMLKMVRIAELNPVYDMATWVADGDFEKPNGLTTSNLAAAFFPMFGIDVPTPVVKASDNAAEITTSRTVSATLPSTLVPGVTAGTMFLGEFKVDITNTLKSTHFGVPYRVKPVNFKITYKYTPGTTFYKTVVKNNANDTEVVPNEKDECSINAYLYEVDSYAETLDGTNINTSNKVIMKAVLEDGSAKADYVTLTIPFKETGNGSFDPTKKKYKLAIVCSSSKKGDQFMGADGSKLWVKYLEVTR	failed
MQNIVIRQCGHEDESWMNTLYKQNSKQALYQLGKSLDEGFVQDNAHFDQVMKQWIEIGAVYAAEIEGDPVGFLVIQRERAQHGPEIIQYISSHENILILQERALSDLHYAGYGPVLVSPHARGKGVAKALHDHALHILKAEKFDAMVAFVDAENPTSLKIHVDALDMQIIDKVVLASGQFFIIGQVIG	failed
MGDSPMNKNAKPDLAGTAALALDKGDPLLTPASVSQRDDARSQQPLGREALDVFVAWSIIGIFLIMSMAVIHELSMILMPVVMAVVVGMILGISAEKLASYGIPGAGVALILSTLVAAVIFFVVNSLIDPVSQLATEGPALIERSIDRFLPYVQNLRWLNISAATFSMGSMSMESLISRSGEIITLLGANVTPAIVQGLIFLAALLMFLYSRLRLRKALIMVFPARHQRLRTIRIIGSVEKVLGTYFATASLIYAALGVTMIVIAYVGGLSMPLLWGLFAFLSSFVPFLGITLMTISLTIAGIIAHDNMILALLPAGVFFTIHLLMENLAFPAVVGRNMEINPFLVFVMIIFWTWMWGAAGAMLALPLSLIAMTVTRELFPSRRVVPKLPD	failed
MSRFRSLLQASVNATKKALTWNVEEWVPPAEKHIFKFHSKEDLKKWHLYSDSEYGGLSSASLEIPDKGDGSDCTGVFSGNLSVDLSEGSKWNISRSGFCGMRSKKFDGFIDLDGYDAIALRIRGDGRCYISTIYTENWVNSPGQSEDNSWQAFVFAPKDSWYTAKIPLARYLPTWRGNVIDVEMEMNPGRVLGMSLSVNAEGGAVGAKSGAGDFRVEIDWIKALRLP	failed
MKEIDELTIKEYGVDSRILMERAGISVVLAMEEELGNLSDYRFLVLCGGGNNGGDGFVVARNLLGVVKDVLVVFLGKKKTPDCEYNYGLYKKFGGKVVEQFEPSILNEFDVVVDAIFGTGLRGEITGEYAEIINLVNKSGKVVVSVDVPSGIDSNTGKVLRTAVKADLTVTFGVPKIGHILFPGRDLTGKLKVANIGHPVHLINSINRYVITREMVRSLLPERPRDSHKGTYGKVLIIAGSRLYSGAPVLSGMGSLKVGTGLVKLAVPFPQNLIATSRFPELISVPIDTEKGFFSLQNLQECLELSKDVDVVAIGPGLGNNEHVREFVNEFLKTLEKPAVIDADAINVLDTSVLKERKSPAVLTPHPGEMARLVKKTVGDVKYNYELAEEFAKENDCVLVLKSATTIVTDGEKTLFNITGNTGLSKGGSGDVLTGMIAGFIAQGLSPLEASTVSVYLHGFAAELFEQDERGLTASELLRLIPEAIRRLKE	not failed
MTMSPSQDQTENTDMLTEIAILYYQEGATQEEISKKFGLSRAKVGRMLRKAREEGIVEITVKFHPVYSVQLEQKLVEKFNLKRALISLDQPNTNEQRKQVAALVSSYLNNNLQEGMAVAVGQGQNVAAVADHAGIVTQRNARFVSAIGGTHRSGDIINADHICRRLAKKYGGSSETLYAPAYVNDPSLRSAFMEHATIKETLSQARKAEFALVGIGDMDENSHMVKLGFFTPKEFVEARLNDGIVGDIGGFDFFKLDGTDADTLMRGRVIGLEMEDLRQIPNVVAMASESRKALSIMGALRTGVIDVLATSVSCAMALLNLAENEE	not failed
MRMAATAPAFPELEGRHPCFSTTAEGHARAARLHLPVSPGCNIDCAFCIRDFNRRDQRPGVATRLLTPEQAVAIVARALELCPSINVVGIAGPGDPLATPHALQTFALVRERWPELVLCLSTNGLMLPDRIDEIAGLGISTLTVTVNAVDPQIQAQVTPKIAWQRKRLNGVVAGERLIANQLEGIARAAAHGLTVKVNTVLIPTVNDHHIETIAERVAAAGANLINIIPLIPQHGFAHLKPPGMLMRYAARTAAEKYLRVFTHCQRCRADACGIPGVSDYAQQLYGDDIVAEPTFSHG	failed
MPKKPLIDQLHHEDSWRLFRILAEFVEGFETLSELQVPLVSVFGSARFGEGHPAYEAGYRLGRALAEAGFGVVTGGGPGVMEAVNRGAYEAGGVSVGLNIELPHEQKPNPYQTHALSLRYFFVRKVLFVRYAVGFVFLPGGFGTLDELSEVLVLLQTEKVHRFPVFLLDRGYWEGLVRWLAFLRDQKAVGPEDLQLFRLTDEPEEVVQALKAEAPPR	not failed
MAVNQDTLYVKGDRNVEVTKREVTLGDLVSMECSNRVILPHLKTMKVLKIPENGEKRYVISILKIIACIHEKYPGLEVQNLGETDLIVTYEMQKTPSK	not failed
MIKVAESRTSWVASVFGLAALYVLGTVTPLEDIDSHLGGVNVTNLLQAIFALLAIFFFNDSVRRLANVPVVRWTYYAPLLSIPVMIASFSLIADKAPTAADFIDTRMDQLATAVYSGTYMFALLFTVLRIIYMLRHNAKGPYATFSAGLMVVAVAVSCHIAYVVLYYFSPWDDFARAIGTWFDRLFYIGLTVTAAGWLILFLSKQLPRLRLWMIDALWLTAMRMRVNADRSRVSPAWDLFNETLENGVYKSLIVLHNYERVNLMEFPESVQGRISHIEAKLDAQT	failed
MAPDNDHFLDSPSPPLLEMRHHQSATENGGGCGEIVEVQGGHIVRSTGRKDRHSKVCTAKGPRDRRVRLSAPTAIQFYDVQDRLGFDRPSKAVDWLITKAKSAIDDLAQLPPWNPADTLRQHAAAAANAKPRKTKTLISPPPPQPEETEHHRIGEEEDNESSFLPASMDSDSIADTIKSFFPVASTQQSYHHQPPSRGNTQNQDLLRLSLQSFQNGPPFPNQTEPALFSGQSNNQLAFDSSTASWEQSHQSPEFGKIQRLVSWNNVGAAESAGSTGGFVFASPSSLHPVYSQSQLLSQRGPLQSINTPMIRAWFDPHHHHHHHQQSMTTDDLHHHHPYHIPPGIHQSAIPGIAFASSGEFSGFRIPARFQGEQEEHGGDNKPSSASSDSRH	failed
MAEGKAMSEFLPFSRPAMGVEELAAVKEVLESGWITTGPKNQALEQAFCQLTGNQHAIAVSSATAGMHITLMALKIGKGDEVITPSLTWVSTLNMISLLGATPVMVDVDRDTLMVTPEAIESAITPRTKAIIPVHYAGAPADIDAIRAIGERYGIAVIEDAAHAVGTYYKGRHIGAKGTAIFSFHAIKNITCAEGGLIVTDNENLARQLRMLKFHGLGVDAYDRQTWGRAPQAEVLTPGYKYNLTDINAAIALTQLVKLEHLNTRRREIAQQYQQALAALPFQPLSLPAWPHVHAWHLFIIRVDEQRCGISRDALMEALKERGIGTGLHFRAAHTQKYYRERFPTLSLPNTEWNSERICSLPLFPDMTTADADHVITALQQLAGQ	failed
MENKKMNLLLFSGDYDKALASLIIANAAREMEIEVTIFCAFWGLLLLRDPEKASQEDKSLYEQAFSSLTPREAEELPLSKMNLGGIGKKMLLEMMKEEKAPKLSDLLSGARKKEVKFYACQLSVEIMGFKKEELFPEVQIMDVKEYLKNALESDLQLFI	not failed
MAKAISAPITFAIILVIGILLLIPFLTYVTYLSQSNQISQAQFNNYIYLKNLEQQRAVSGRPGVYYNGSSLFILYSNGTFVPNASIVVVGILYLNNLGVWQNITSLKYPIILNRTGSVNLPSNVAGKPIILVTSLGNIFFLQPGSSIGPYSNSIGKGGVTIISQIYTSSQIYSTSINITTNINGKFSNYTTPITFPNQTGTFQVKAREYIYYINSKTGKVITGVFSNWQILGSATVNSTTTQGITVTLQGKPVILIANYSQLVQSVNLSIKTNANFSIVVNINGVNYTVNNHALSATVPAGYVNFTVYTLQGNDTSSMSSGIIKHYKFNTINYTGNTYVTNSQLLFLPPNSLPYVQINYVNDYNYYKVFLYDYYDSPPPPGGGLVVILNGTEYNYNNTYGYWIIGGNYSFVPTGIFNGSMSYEAKEVTIAGNNGILNYYFPDIPSYIIINQPMTITVYYDYVIKWVPI	failed
MTVTDHILPTATNGRPPGLIIAAPSTNSGKTTVTLALHAALRRRSLTVQPYKCGPDYIDPAFHEIAAGRPCYNLDSWAFGQDRITYLLDAAAGADLCLAEGVMGLFDGGSARGAWGNGATADIAAFTGWPVVLVIDVAGQAQSAAALALGFARYRSDVRIAGVILNNVASARHEALVRDGFAAQDIPVLGGFERQRDLTLKNRHLGLVQARETARLDIRLQQLADSAVRGIDLDALIRAAQPARPIASTIRPLTPPGQRIALAHDDAFSFIYPHLTAGWRAAGAEIVPFSPLNDEGPDPSCDAAWLPGGYPELHAGRLAAATRFKAALGAFAETRAVHGECGGYMTLGAGLIDADGTRHAMAGLLGLETDFASRKLHLGYRLATLHADAAGKAAGSVLRGHEYHYARVVTVADEPLAEIRDPAGQLTDETGSRRGHVTGTFFHLIDVAEEAIALEHHHHHH	failed
MNTDLTLVIMAAGLGSRFGGDKQLASLGPSGEPMLVLSILSAIRSGFQRAVLVIRPELEAELTGILTQFLPANFEYHFCYQSLSDLPQDAKLADLSHRLKPWGTAHALWCARDWVKGPMAVINADDFYGDSAFASLAKGLTARPNDWMMVAYPIELTLSEHGGVNRGLCQVAQGQLRSVAEWLNIQAQDDGFVGEGPNGLAKLPLQSLVSMTCWGFSPSIFNVIKQQLTAFIEQQGQLPKSECYLPAVVQAAIEQGVPVYVDVASEPWLGVTYPQDTVWVKQKLMELLGDKTHLEHHHHHH	failed
MKLPLIMLTALIALTACTSSSTGRKQVMLFSDAELDKMGAASFEDMKKKTPISTDKATNDFVQCVAKSITKNVAKSVHQGDWEVVVFDSAQVNAFALPSGKIGVYTGILNVTENQDQLGAIIGHEVGHVIEHHSNERLSANKLQNMGMAAATAAVGLSDVENKGLWMAGLGLGLQYGVIMPYSRAHESEADIVGQDLMARSGFEPSASIKLWQNMAKLSKGAPAEFMSTHPSNKTRINQLTEHLPSAMTLYKTDSRPNCQKPKVIPSPKA	failed
MRVDIVPVGDVPAHVKRQASSSLRSVYDCEVVVASEQDVPTAAYDEARSQYRAAEFIDTATRATSGDKTIAITPHDLFYRRRNYVFGLAYLDGRGCVVSTYRLQTSSDGGFSNRSSSDVFDDRVRKEVVHELGHTLGLEHCDNNRCAMNFSPTVREVDRKEENLCGSCQRTVFLEHHHHHH	not failed
